Broadly, the Kd is the equilibrium constant for the complex coming apart.

The target in the test is Calcineurin A subunit alone, residues 1-348 (human) (UniProt Q08209). Description: ITC; NFAT peptides, PALB2 or SYDE2 titrated into calcineurin in the cell; 25 °C; 20 mM Tris pH 7.5, 100 mM NaCl, 1.0 mM CaCl2, 0.5 mM TCEP; one set of sites model with n=1; averages of >=3 experiments (SYDE2: 2).

As to ESPRIEITS [NFATc1 PxIxIT peptide 116…124], the dissociation constant Kd is 4.1 µM.
The value for DDQYLAVPQHPYQWAKPK [NFATc1 LxVP long peptide 383…400] was 2.4 µM.

(Values after paper PMC5156906.)
